Source: publication doi:10.1101/2023.05.09.540036
*1 amine or outer side, *2 acyl side, *3 side chain or, on linkers, in order; H or OH if unused. Bridges are numbered along the chain shown (N, C = ends). Primed or numbered codes have the meaning given here. The star is where a group is joined. PEG3′ = three-unit polyethylene glycol linker; NOTA = O=C(O)CN1CCN(CC(=O)O)CCN(CC(=O)*)CC1; TBMB = c1c(C[*:1])cc(C[*:3])cc1C[*:2]

Target: T1, His-Tagged human CD38 recombinant protein (human) (UniProt P28907)
T1 sequence (P28907 whole entry, looked up): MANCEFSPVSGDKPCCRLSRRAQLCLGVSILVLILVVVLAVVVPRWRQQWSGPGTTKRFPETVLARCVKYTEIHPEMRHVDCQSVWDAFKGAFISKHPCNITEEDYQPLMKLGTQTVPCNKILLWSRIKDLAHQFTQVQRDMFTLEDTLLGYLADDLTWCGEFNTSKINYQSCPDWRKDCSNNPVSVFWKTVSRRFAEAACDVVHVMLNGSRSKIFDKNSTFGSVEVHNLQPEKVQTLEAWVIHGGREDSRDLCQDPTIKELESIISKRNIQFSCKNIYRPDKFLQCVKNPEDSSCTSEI
Test: SPR

Kd: 19.1 nM
B1: AJ206 (NOTA-conjugated bicyclic peptide) (peptide)
peptide: {NOTA-PEG3′}-ACVPCADFPIWYC-NH2
modifications: linker 2-5-13 via TBMB
